Consider 4 substances from publication PMC3343699.

Like-named read-outs stand apart in the source and are kept apart here.

The target of assay [1] is Lys429Cys/Thr463Cys double mutant of the bovine Aα406–483 fragment, first fraction (Fr-1) (bovine). Description: SEC. (In general: Size exclusion chromatography separates by hydrodynamic size, large species first.)
Assay [2] has the same target. Kind of assay: SEC. This is another data set of the same source.
For assay [3] the target is unchanged. Kind of assay: SEC. The source holds these as a separate data set.
Assay [4] addresses Recombinant Aα392–503 fragment corresponding to the N-terminal subdomain of the human fibrinogen αC-domain (human). Kind of assay: optical trap-based force spectroscopy.
The target of assay [5] is Recombinant Aα221–391 fragment corresponding to the human fibrinogen αC-connector (human). Kind of assay: optical trap-based force spectroscopy.

For “Lys429Cys/Thr463Cys double mutant of the bovine Aα406–483 fragment, first fraction (Fr-1) (domain or fragment)”, the oligomers (%) in assay [1] turned out to be 31.7%; in assay [2], 5.9%; in assay [3], 12.4%.
Regarding “Recombinant Aα392–503 fragment corresponding to the N-terminal subdomain of the human fibrinogen αC-domain (domain or fragment)”, in assay [4], the cumulative binding probability was found to be 67%, the rupture force peak 1 turned out to be 16 pN, the rupture force peak 2 came to 32 pN and the rupture force peak 3 was 48 pN.
“Recombinant Aα504–610 fragment corresponding to the C-terminal subdomain of the human fibrinogen αC-domain (domain or fragment)”: in assay [5], the cumulative binding probability was determined as 46% and the rupture force peak was 26 pN.
“Recombinant Aα392–610 fragment corresponding to the human fibrinogen αC-domain (domain or fragment)”: in assay [5], the cumulative binding probability was 51% and the rupture force peak amounted to 22 pN.
